Laboratory results reported in publication PMC3347502.

Target: long-chain neurotoxin NTII/I
Test: NMR titration

Question: How did the stoichiometry N turn out when “α7ED/C116S/DTES (extracellular domain of human α7 nicotinic acetylcholine receptor with Cys116Ser an (domain or fragment)” was run?
Answer: 2
